Laboratory results reported in PMC6215446, “High-level expression and molecular characterization of a recombinant prolidase from Escherichia coli NovaBlue” (PeerJ, 2018).

B1: Escherichia coli NovaBlue prolidase (EcPepQ), His6-tagged (enzyme, UniProt P21165 1-443, looked up)
chain: MESLASLYKNHIATLQERTRDALARFKLDALLIHSGELFNVFLDDHPYPFKVNPQFKAWVPVTQVPNCWLLVDGVNKPKLWFYLPVDYWHNVEPLPTSFWTEDVEVIALPKADGIGSLLPAARGNIGYIGPVPERALQLGIEASNINPKGVIDYLHYYRSFKTEYELACMREAQKMAVNGHRAAEEAFRSGMSEFDINIAYLTATGHRDTDVPYSNIVALNEHAAVLHYTKLDHQAPEEMRSFLLDAGAEYNGYAADLTRTWSAKSDNDYAQLVKDVNDEQLALIATMKAGVSYVDYHIQFHQRIAKLLRKHQIITDMSEEAMVENDLTGPFMPHGIGHPLGLQVHDVAGFMQDDSGTHLAAPAKYPYLRCTRILQPGMVLTIEPGIYFIESLLAPWREGQFSKHFNWQKIEALKPFGGIRIEDNVVIHENNVENMTRDLKLA
notes: Prolidase (Xaa-Pro dipeptidase) PepQ of E. coli NovaBlue; residue number of 443 printed; Cloned BamHI/HindIII into pQE-30; also called Xaa-Pro dipeptidase; recombinant enzyme; source: E. coli M15 (pQE-EcPepQ), IPTG-induced, purified (Ni-NTA); not shown: His6, N-terminal, kept

How the values were obtained:
[1] = tested on: C[C@H](N)C(=O)N1CCC[C@H]1C(=O)O; experiment: proline release, ninhydrin colorimetric assay; Lineweaver-Burk; format: biochemical, Escherichia coli; details: 0.1 mM Mn2+, 25 mM Tris-HCl pH 8.0, 60 °C, 10 min, substrate 0.2-14.2 mM
[2] = target: the molecule itself; experiment: SEC; gel filtration on Superdex 200 HiLoad 16/60, 25 mM Tris-HCl buffer (pH 8.0) with 10 mM Mg(OAc)2 and 2 mM DTT; calibrated with thyroglobulin, aldolase, ovalbumin, ribonuclease A; apparent molecular mass of the native form

Molecule | Km [1] [mM] | kcat [1] [s⁻¹] | stoichiometry N [2]
EcPepQ (Escherichia coli K-12) | 8.8 ± 1.1 | 926.5 ± 2.0 | 
B1 |  |  | 2
